{
  "source": "the DeepSol protein solubility set",
  "data": [
    {"test": "soluble on expression in E. coli; label from the status in PepcDB or PDB records", "values": [
      {"sequence": "MAPPVLKNEDSDLAVREPAAKKSKKSNGKAQAVKSESSESMFMTEATTDENIYPDATFQSYEEFDQKFNVWKAKNLHPFRVASSESLRTEDGSISEKFKYRYVVFHCARYGVPRMRGEGKRPNQNYLPCSCTAMIRLNFQFHEQCLRLTSLETRHSNHTICKDLYEKMCVKEEKRKHVTPRRTMSGPKSRSSSVATAGNADTSLISDRSINVKKEPSEERADSEHSHGQSPVDLHYEVTRPYEVSPSAPISEITTPFVLPTQKVGLNDLVPTSQFSPMDYQSLQNQIILNQVKLNAMTNNVYNPFGNWPASSLVPTPAPPFLTPTPSQVSPALSSSVDENEAPKIFHSLEAVRPIPLRPSQNSAFYQMLNSSSTSPIIAVTKAEVDSVLGAASRLLNDNHLPEDVLHSRVKQLNGLISQWTHS", "soluble on expression in E. coli": "not soluble"},
      {"sequence": "MTGATGFIGKYIIDNLLARGFHVRALTRTARAHVNDNLTWVRGSLEDTHSLSELVAGASVVVHCAGQVRGHKEEIFTRCNVDGSLRLMQAAKESGFCQRFLFISSLAARHPELSWYAKSKYVAEQRLAAMADEITLGVFRPTAVYGPGDKELKPLFDWMLRGLLPRLGAPDTQLSFLHVTDFAQAVGQWLSAETVQTQTYELCDGVAGGYDWQRVRQLAAKARCGSVRMVDIPLPVLTGLADISTALSRLAGKEPMLTRSKIRELTHADWSASNNRISEDINWFPGISLEHALRNGLF", "soluble on expression in E. coli": "not soluble"},
      {"sequence": "MGSMSMNAEQTVAELIARSNRLGSDPKNTNYAGGNTSAKGTDTDPVTGQPVELLWVKGSGGDLGTLTENGLAVLRLDRMRALVDVYPGVEREDEMVAAFDYCLHGRGGAAPSIDTAMHGLVDAAHVDHLHPDSGIALATAADGEALTKQIFGDRVVWVPWRRPGFQLGLDIADIKRRNPQAIGTILGGHGITAWGSTSAEAEAHSLEIIETAERYIAENGLEHHHHHH", "soluble on expression in E. coli": "soluble"},
      {"sequence": "NTLGMALYADGGLMASKPYAASGKYIHRMSNFCQSCYYNPNDLLGEKACPFNALYWNFLHQNQEKLKDNPRLRYAYMNWQKMDFDKQKKTIHKAQRILADLDSANL", "soluble on expression in E. coli": "not soluble"},
      {"sequence": "MAHHHHHHMNNSVTRKIEKQILEALKDKENDIDKEIRKYEILERKVYDENDEELEFIKNKRLEELKNKHKEKLTLLKKGHGTYKEVLSEKEFFEICKSSKNVCCHFYRNTTWRCQYMDKKLIDLSSKYWNINFIKINAEKSPFLCERLKIWCIPTVMLIQNGKTEHSIVGFDELGGDNFSEQTLVNVLRKWRLIETKENDD", "soluble on expression in E. coli": "not soluble"},
      {"sequence": "MSSKEIICQGEELFRLIPQRPPMVMIDRFYGIEENTSWSGLTVTTDNLFCRDGVLQETGIIEHIAQSAAARVGYIYMLRKEPVPLGFIGSVEKMKLFRLPSAGAELYTGITIVQEVFDITLITAEVKENDELLAECRMKIYLKKELEHHHHHH", "soluble on expression in E. coli": "soluble"},
      {"sequence": "MEEVFTAALESKIFRKRWVLLPDYVPDVLPHREAELRRLAEVLAPALRGEKPSNALLYGLTGTGKTAVARLVLRRLEARASSLGVLVKPIYVNARHRETPYRVASAIAEAVGVRVPFTGLSVGEVYERLVKRLSRLRGIYIIVLDEIDFLPKRPGGQDLLYRITRINQELGDRVWVSLVGITNSLGFVENLEPRVKSSLGEVELVFPPYTAPQLRDILETRAEEAFNPGVLDPDVVPLCAALAAREHGDARRALDLLRVAGEIAERRREERVRREHVYSARAEIERDRVSEVVRTLPLHAKLVLLSIMMLEDGGRPASTGEIYERYKELTSTLGLEHVTLRRVSGIISELDMLGIVKSRVVSRGRYGKTREVSLDADRLAVENALSEDPFVARLL", "soluble on expression in E. coli": "not soluble"},
      {"sequence": "MGSDKIHHHHHHMSDDELLFAEEDPSDNVGEGIGRAPWVILVVDDDTEVHALSRLLLSEIEFKGRRVAMYSAYSAAEARAMLGRIDDVAVILLDVVMETDDAGLKLVRTIRETMNNRDVRIILRTGQPGQAPEREVIETYDINDYKSKTELTAQKLHTALVAALRAYDDIMALVLSRQGLRKILDAAASLYRQRSMELFAAGVLTQINALLGGDRDGILCVQSRKEQADEDDPAGAMVVLAASGAYERLVGKRVDELPESPVISLIREAAASRTSRHGSHASALYMPTGDGRETVVFLHAAEPLKAQDRALMQLFCDNISAGFDTVCEIDDLRRENVRLRARLGEAKAP", "soluble on expression in E. coli": "not soluble"},
      {"sequence": "MVCDEKRYAIREVAEITGVKPVTLRAWQRRYNLVQPDRTEKGHRLFTDQDIEMIRQIQSWLAKGVAIGKVGALLQSGVSESESIPQPVGQLEECETLLTALAALQRSKAEQIIATVLKEYPLSVMQAQFVQPVTEALERVKGPLRSLQIGLFRTLMLSKLAFILDAENKAAVKGKCLCISLDEAGSLNAWLWALAWAENGHQVTLLEAVDDIRGLLENPGLAQYQILALHAHRALPAAQQSALASLQQQFGEQCVLSNVLQQLQS", "soluble on expression in E. coli": "not soluble"},
      {"sequence": "MAEEIQMYDDAASVAFIRNFIPQELKEKMTDDDIVYIVDLIYDFYESRGFMDMAEDSEETVEVDEDELVEYVVKNAARDEVGHFSADEIRFVVQGELEYCESINLFEED", "soluble on expression in E. coli": "not soluble"},
      {"sequence": "MPCRGLHAIPAGPPEFPELATIYVVCGDKLNVMIDAGVTNSIMDSSFLEKLDLVILTHIHIDHIGLLPEILDRYKNAKVMIKNGFKKFLTTEDGVRRLNESSEKVLGDLYYIYGEFTKIDPDKVVEVEGGEMIDIGDGKTLKIIYTPGHAKHHISVVSDDILFTGDSGGAYFNGAVIPTTPPPLDYDNYVNSLRLQISLKPKVVGLAHGGLVSPNILEQHLDQMLGKESFDIGEIDIGGIGGEILRKQVEVNLRGLNEALGRNKKTLLEHHHHHH", "soluble on expression in E. coli": "not soluble"},
      {"sequence": "MSLSKNWLFLGKGFRWRPSHTQKLHQIKQVKNEKFMQRSYCYQLTRRFCQSHEHTKLAKWLNINSKLNPFRPDPPVGGSPFLHGVGDEDKPVYIPQDVRVGHTFVVGTTRVGKTRLASILINQDIRNGDAVIVVDPKGDQDLVRDMVAACKVSGRTEDFKIVHLGFPEQSAQYNPLKKFDQISEVATRITDAISAEGEGKQFAAFAWKYVNIVAICLEEMNQPITYQTIAFYISRLEQLLMSYADNILPNHYLNYHQEIDDIIEEHDSKIGKNNKTKSPMERHQAVIQYIKDHINKTIKSNNAEALHDQILIDLYDAAIMDKHYYDKITASVGPVLSEINKSNASKILSSKAQPGDIELMDVIKNKKVLYIGLDSLTNPNIAQAVGKAFLSDLVSTAGKIYKEPNARYTLNLHCDELSEIIQDSFVKILNKAGGAGFQVTAYAQTIQDMEVALGSRAKAEVSEGNFNTLIMLRVKNEETANLLVKVLPQVGVVGHTQVSMVNDTPHGDDGVYFNTTNEDRVQTSNAPMIGVDDIISLPKGQAFVLASGGEIWKIRIPLPMNSNEGHHHHHH", "soluble on expression in E. coli": "not soluble"},
      {"sequence": "MAGDPMQADLFDAEQTGIRTRLGEQAWVLRGFALPWLDALLPALRAVIAQAPLRHMATPGGFTMSVALTNCGALGWTTDAHGYRYRPDDPQTGLPWPPMPQAFAQLAREAAAQAGFAGFDPDACLVNRYAPGARMSLHQDKNERDFGAPIVSVSLGLPAMFLFGGARRDERPARIPLLHGDVAVWGGVDRLRYHGVMPLAEGQHPLLGRQRINFTLRRAGALEHHHHHH", "soluble on expression in E. coli": "not soluble"},
      {"sequence": "GMTYKDYTGLDRTELLSKVRHMMSDKRFNHVLGVERAAIELAERYGYDKEKAGLAALLHDYAKELSDDEFLRLIDKYQPDPDLKKWGNNIWHGLVGIYKIQEDLAIKDQDILAAIAKHTVGSAQMSTLDKIVYVADYIEHNRDFPGVEEARELAKVDLNKAVAYETARTVAFLASKAQPIYPKTIETYNAYIPYLD", "soluble on expression in E. coli": "soluble"},
      {"sequence": "PAAQSCAARVGAPLVNDTVSISLSDHLTDMPTIESRLHAAAKEGFTITIYNPWSRKRRDNYEKCCEILLEHRDPETPVGVVHAAGREDEQVEIVELGELPELGETDLVDMTTTLLVGNEDTY", "soluble on expression in E. coli": "not soluble"},
      {"sequence": "HQQQRSVMTEEYKVPDGMVGFIIGRGGEQISRIQQESGCKIQIAPDSGGLPERSCMLTGTPESVQSAKRLLDQIVEKGR", "soluble on expression in E. coli": "soluble"},
      {"sequence": "SLHPDTILHNGRVTTLDRGNPNATAVAIKDGLFVEVGSDAEVMALAGSETKIIDLKGKRVLPGLIDNHTHVIRGGLNFNMELRWDGVRSLADAMYMLKRQVAITPAPQWVRVVGGFTEHQFVEKRLPTIEEINAVAPDTPVFLLHLYDRALLNGAALRAVGYTKDTPNPPGGEITRDANGNPTGLLLAKPNAGILYSTLAKGPKLPLDYQVNSTRHFMRELNRLGVTGVIDAGGGFQNYPDDYEVIQKLSDENQMTVRLAYNLFTQKPKQEKEDFLNWTSSVKYKQGNDYFRHNGAGEMLVFSAADFEDFRQPRPDMPPEMEGELEDVVRILAENRWPWRLHATYDETISRALDVFEKVNRDIPLEGLNWFFDHAETISDRSIDRIAALGGGIATQHRMAYQGEYFVERYGQGVAEATPPIARMLEKGVNVSAGTDATRVASYNPWVSLFWMVTGKTVGGMQLYPRANCLDRETALRMWTEKVTWFSNEEGKKGRIEKGQFADLVVPDKDYFSCAEDEISFLTSELTMVGGKIVYGAGDFRVLDESNIPPAMPDWSPVRTFGGYAAWGEPQGAGKNSLRRAAITSCGCASDCGVHGHDHAGAWTSKLPIADLKGFFGALGCSCWAV", "soluble on expression in E. coli": "soluble"},
      {"sequence": "MKDNERRILLGRVVGGFGLRGEIKIESWTEPRDAIFRYQPWLLRSPTGTESMLNGARGYETGKRLIATFPGINDRNGVEAICGTEIYVPRSALPPPHPDEYYWVDLEGLQVHTLEGVVLGSVSHLFSNGANDVIVIHGERERLIPFVQPDYVKSVDFEAERIVVDWDPEFLEHHHHHH", "soluble on expression in E. coli": "soluble"},
      {"sequence": "HHHHHHGSGAVKLSVSYRNGTLFIMVMHIKDLVTEDGADPNPYVKTYLLPDTHKTSKRKTKISRKTRNPTFNEMLVYSGYSKETLRQRELQLSVLSAESLRENFFLGGITLPLKDFNLSKETVKWYQLTAATYL", "soluble on expression in E. coli": "soluble"},
      {"sequence": "MGSDKIHHHHHHETENVNCGQVLAGDTAYLKTVTGEYRIKIAENESLNMSCEAVMDRILSRDHVLRPLENGVAFARVVYMDYELIEKHVEMSYHPQNSFCFAIDKKAAKEFKERMQAMASCLPNVLLLPGRFFKNPIHDLSVDSHGHNTNLAHYNCLRALINKPGWNYAILLQNHDLITKSVYELEKIFNWLGGANDVAIRPELGRLDKKHFKWDPMSLKLFRNESEIDPVILNTTLKFAKGAVQSSLSRAAVDWMTRTVDLTTFIDQWNHGTYGVDEQFTQAFQISDFLGMPGHFTDKCIKKGIITEGITRFAQWTHGDQSKCASKKSRHGICIMGIEHLSMMAKSEHLMFNKVLPLFDYSIIECTAE", "soluble on expression in E. coli": "not soluble"},
      {"sequence": "MDQLQIKDLEMFAYHGLFPSEKELGQKFIVSAILSYDMTKAATDLDLTASVHYGELCQQWTTWFQETSEDLIETVAYKLVERTFESYPLVQEMKLELKKPWAPVHLSLDTCSVTIHRRKQRAFIALGSNMGDKQANLKQAIDKLRARGIHILKESSVLATEPWGGVEQDSFANQVVEVETWLPAQDLLETLLAIESELGRVREVHWGPRLIDLDLLFVEDQILYTDDLILPHPYIAERLFVLESLQEIAPHFIHPILKQPIRNLYDALKK", "soluble on expression in E. coli": "soluble"},
      {"sequence": "MSLQMYAGWRVVVDKNCIKIVSSNLAAQKLIEKQHNARLDTIAAKQQKVELYSVSMATMKELYKLSMQNISGFGTESLYYKEIGSCALDIIRNVPELIKTVSKAKFTNQLYCLTELGGLVMETQQLVGNFVNIVNNAKIPNPLKGEGTAERKSDGYNILDRYERMSLANSIYTNLNEIRYKVDGMMLMAQYATLNDLCFAINPEGWANVMTMRNQVDGLVSDWNGLVATNEGHHHHHH", "soluble on expression in E. coli": "soluble"}
    ]}
  ]
}
